14 molecules from patent US20180194862A1 (AbbVie / Abbott, published 2018) can be followed below.

In assay [1] the target is human CD40 on cells (HEK293 stable transfectants, HEK-Blue CD40 cells, human B cells, monocytic cells, … (human, UniProt P25942 21-277)). Nature of the assay: cell-based or functional assay.
Assay [2] deals with T1, soluble form of the extracellular domain of human CD40 (Creative BioMart) (human, UniProt P25942 21-193).
T1 construct: Bought
Nature of the assay: SPR, Ab captured. How it is done: CD40 binding kinetics was analyzed by surface plasmon resonance assay with a Biacore T200 instrument (Table 1-5). Briefly, a goat anti-mouse Fc antibody (Pierce) or goat anti-human Fc (Pierce) was immobilized on a CM5 sensor chip, followed by capture of the anti-CD40 antibodies on the test surface. Subsequently, the soluble form of the extracellular domain of human CD40 (Creative BioMart) or cynomolgus (cyno) CD40 (Creative BioMart) was injected, and the binding and dissociation were measured.

The next assay concerns the target T2, human mesothelin (human, UniProt Q13421 296-580, limits assumed).
T2 construct: also called Human MSLN
Nature of the assay: SPR.

A further assay deals with T3, cynomolgus mesothelin (cynomolgus).
T3 construct: also called cynoMSLN; Cyno MSLN
Nature of the assay: SPR.

T1 sequence (P25942 21-193 limits assumed): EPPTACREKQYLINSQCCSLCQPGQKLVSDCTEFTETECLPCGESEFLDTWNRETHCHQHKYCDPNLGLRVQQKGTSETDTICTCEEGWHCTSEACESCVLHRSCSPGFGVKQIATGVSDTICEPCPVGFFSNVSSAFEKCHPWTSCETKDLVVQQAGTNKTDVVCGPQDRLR
human CD40 on cells (HEK293 stable transfectants, HEK-Blue CD40 cells, human B cells, monocytic cells, …, sequence (P25942 21-277 limits assumed): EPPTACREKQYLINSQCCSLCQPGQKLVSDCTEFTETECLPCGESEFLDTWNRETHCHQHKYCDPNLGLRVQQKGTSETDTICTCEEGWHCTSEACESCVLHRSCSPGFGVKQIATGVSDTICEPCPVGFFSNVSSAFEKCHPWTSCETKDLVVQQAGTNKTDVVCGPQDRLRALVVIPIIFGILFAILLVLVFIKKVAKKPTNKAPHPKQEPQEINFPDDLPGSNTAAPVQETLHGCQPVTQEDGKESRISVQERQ
T2 sequence (Q13421 other isoform, or with tags, fused parts or gaps limits assumed): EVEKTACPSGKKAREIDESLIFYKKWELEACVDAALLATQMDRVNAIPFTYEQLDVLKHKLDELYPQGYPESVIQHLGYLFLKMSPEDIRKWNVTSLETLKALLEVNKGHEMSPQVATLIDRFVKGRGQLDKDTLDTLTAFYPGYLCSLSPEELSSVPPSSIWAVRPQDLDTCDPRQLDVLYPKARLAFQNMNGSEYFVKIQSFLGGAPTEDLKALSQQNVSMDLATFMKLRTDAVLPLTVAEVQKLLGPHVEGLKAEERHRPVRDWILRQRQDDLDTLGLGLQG

B1: AD164.76.3 (antibody, V domains shown)
VH: DVQLQESGPGLVKPSQSLSLTCSVTGYSITSNYYWNWIRQFPGNKLEWMGYIRYDGSNNYNPSLKNRISITRDTSKNQFFLRLNSVTTEDTATYYCTRLDYWGQGTTLTVSS
VL: DAVMTQTPLSLPVSLGDQASISCRSSQSLENSNGNTFLNWFLQKPGQSPQLLIYRISNRFSGVPDRFSGSGSGTDFTLKISRVEAEDLGVYFCLQVTHVPFTFGSGTKLEIK
notes: mouse hybridoma antibody; also called muAb10; AD164.76.2
Consider B1, for which, in assay [1], the “Monocyte activation (THP1-Xblue, OD655)” value was found to be 0.16 OD655 and the “moDC activation (IL-12p70)” value turned out to be 770 pg/mL. In assay [2], the affinity, expressed as Kd, was 13 nM; the koff amounted to 0.034 s⁻¹; the kon came to 2.6e+06 M⁻¹ s⁻¹.

B2: AD165.1.2 (antibody, V domains shown)
VH: DVQLQESGPGLVEPSQSLFLTCSVTGYSITTNYNWNWIRQFPGNKLEWMGYIRHDGTNNYNPSLKNRISIIRDTPKNQFFLKLNSVTTEDTAIYFCTRLDYWGQGTSVTVSS
VL: DAVMTQTPLSLPVSLGDQASISCRSSQSLENSYGNTFLNWFLQRPGQSPQLLIYRVSNRFCGVPDRFSGSGSGTDFTLKISRVEAEDLGIYFCLQVTHVPYTFGGGTKLEIK
notes: mouse hybridoma antibody; also called muAb5
Take B2: in assay [1], the “Monocyte activation (THP1-Xblue, OD655)” value stood at 0.14 OD655 and the “moDC activation (IL-12p70)” value was found to be 720 pg/mL. In assay [2], the Kd is 0.88 nM, the koff worked out at 0.002 s⁻¹ and the kon worked out at 2.3e+06 M⁻¹ s⁻¹.

B3: AD164.14.6 (antibody, V domains shown)
VH: DVQLQESGPGLVKPSQSLSLTCSVTGYSITSNYYWNWIRQFPGNKLEWMGYIRYDGSNNYNPSLKNRISITRDTSKNQFFLKLNSVTTEDTATYYCARLDYWGQGTTLTVSS
VL: DAVMTQTPLSLPVSLGDQASISCRSSQSLENTNGNTFLNWFLQKPGQSPQLLIYRVSNRFSGVPDRFSGSGSGTDFTLKISRVEAEDLGVYFCLQVTHVPFTFGSGTKLEIK
notes: mouse hybridoma antibody; also called muAb9
On to B3, for which, in assay [1], the “Monocyte activation (THP1-Xblue, OD655)” value came to 0.15 OD655 and the “moDC activation (IL-12p70)” value was determined as 878 pg/mL. In assay [2], the Kd was 19 nM, the off-rate (koff) was 0.052 s⁻¹ and the kon amounted to 2.8e+06 M⁻¹ s⁻¹.

B4: AD175.14.11 (antibody, V domains shown)
VH: EVQLQQSGPELVKPGASVKISCKASGYTFTDYYMNWVKQSHGKSLEWIGDINPNNGGTSYNQKFKGKATLTVDKSSSTAYMELRSLTSEDSAVYYCARRGGLGRGTYALDYWGQGTSVTVSS
VL: DIQMTQTTSSLSASLGDRVTISCRASQDISNYLNWYQQKPDGTVKPLIYYTSRLHLGVPSRFSGSGSGTDYSLTISNLEQEDIATYFCQQGNTLPLTFGAGTKLELK
notes: mouse hybridoma antibody; also called muAb3
For the molecule B4, in assay [1], the “Monocyte activation (THP1-Xblue, OD655)” value came out at 0.2 OD655 and the “moDC activation (IL-12p70)” value worked out at 0 pg/mL. Further, in assay [2], the Kd was 170 nM, the koff was found to be 0.012 s⁻¹ and the kon came out at 69000 M⁻¹ s⁻¹.

B5: AD163.7.2 (antibody, V domains shown)
VH: QVQLQQSGPELVKSGASVKISCKASGYTFTDYYINWVKQRPGQGLEWIGWIFPGSGSVYCNEQFKGQATLTVDRSSSTAYMLLSSLTSEDSAVYFCASSLGKFAYWGQGTLVTVSA
VL: DIVMTQSQKFMSTTVGDRVSITCKASQSVVTAVAWYQQKPGQSPKLLIYSASNRYTGVPDRFTGSGSGTDFALTIRTMQSEDLADYFCQQYSSYPYTFGGGTKLEIK
notes: mouse hybridoma antibody; also called muAb8
For the molecule B5, in assay [1], the “Monocyte activation (THP1-Xblue, OD655)” value was found to be 0.13 OD655 and the “moDC activation (IL-12p70)” value was found to be 905 pg/mL. In assay [2], this molecule yielded a Kd of 4.1 nM, a dissociation rate constant (koff) of 0.0042 s⁻¹ and a kon of 1e+06 M⁻¹ s⁻¹.

B6: HuAM1 (antibody, V domains shown)
VH: EVQLVQSGAEVKKPGASVKVSCKASGDTFKRYYVQWVRQAPGQGLEWMGIINPSGVSTTYAQKFQGRVTMTRDTSTSTVYMELSSLRSEDTAVYYCAESRGSGYNYFAMDVWGQGTLVTVSS
VL: SYELTQPPSVSVSPGQTASITCSGDKLGDKYASWYQQKPGQSPVLVIYQDNRRPSGIPERFSGSNSGNTATLTISGTQAMDEADYYCQAWDSDTYVFGTGTKVTVL
notes: fully human antibody
For the molecule B6, in the assay with human mesothelin, binding was characterised by a dissociation constant (Kd) of 2.7 nM, the koff came to 5.1e-05 s⁻¹ and the kon was 19000 M⁻¹ s⁻¹. In the assay with cynomolgus mesothelin, this molecule returned a Kd of 11 nM, a koff of 0.0002 s⁻¹ and a kon of 18000 M⁻¹ s⁻¹.

B7: HuAM17 (antibody, V domains shown)
VH: EVQLVQSGAEVKKPGASVKVSCKASGDTFNRYYVQWVRQAPGQGLEWMGIINPSGVSTTYAQKFQGRVTMTRDTSTSTVYMELSSLRSEDTAVYYCAESRVPGYNIFAMDVWGQGTLVTVSS
VL: SYELTQPPSVSVSPGQTASITCSGDKLGDKYASWYQQKPGQSPVLVIYQDNRRPSGIPERFSGSNSGNTATLTISGTQAMDEADYYCQAWDSDTYVFGTGTKVTVL
notes: fully human antibody
As for B7, in the assay with human mesothelin, binding was put at a Kd of 0.53 nM, the off-rate (koff) stood at 1.5e-05 s⁻¹ and the kon worked out at 29000 M⁻¹ s⁻¹. Besides, in the assay with cynomolgus mesothelin, the Kd stood at 3.4 nM, the koff worked out at 9.1e-05 s⁻¹ and the on-rate constant (kon) is 27000 M⁻¹ s⁻¹.

B8: HuAM18 (antibody, V domains shown)
VH: EVQLVQSGAEVKKPGASVKVSCKASGDTFNRYYVHWVRQAPGQGLEWMGIINPSGVSTTYAQKFQGRVTMTRDTSTSTVYMELSSLRSEDTAVYYCAETRGSGYNYFGMDVWGQGTLVTVSS
VL: SYELTQPPSVSVSPGQTASITCSGDKLGDKYASWYQQKPGQSPVLVIYQDNRRPSGIPERFSGSNSGNTATLTISGTQAMDEADYYCQAWDSDTYVFGTGTKVTVL
notes: fully human antibody
In the assay with human mesothelin, B8 showed a Kd of at most 0.66 nM, a koff of at most 1e-05 s⁻¹ and a kon of 16000 M⁻¹ s⁻¹. In the assay with cynomolgus mesothelin, this molecule showed a Kd of 9.3 nM, a koff of 0.00013 s⁻¹ and a kon of 14000 M⁻¹ s⁻¹.

B9: HuAM6 (antibody, V domains shown)
VH: EVQLVQSGAEVKKPGASVKVSCKASGDTFNRYYVHWVRQAPGQGLEWMGIINPSGVSTTYAQKFQGRVTMTRDTSTSTVYMELSSLRSEDTAVYYCAESRVPGYNNFAMDVWGQGTLVTVSS
VL: SYELTQPPSVSVSPGQTASITCSGDKLGDKYASWYQQKPGQSPVLVIYQDNRRPSGIPERFSGSNSGNTATLTISGTQAMDEADYYCQAWDSDTYVFGTGTKVTVL
notes: fully human antibody
In the assay with human mesothelin, B9 had a Kd of 1 nM, a koff of 2.4e-05 s⁻¹ and a kon of 24000 M⁻¹ s⁻¹. For the same molecule, in the assay with cynomolgus mesothelin, the Kd is 3.9 nM, the koff was 8.5e-05 s⁻¹ and the kon worked out at 22000 M⁻¹ s⁻¹.

B10: HuAM7 (antibody, V domains shown)
VH: EVQLVQSGAEVKKPGASVKVSCKASGDTFNRYYVHWVRQAPGQGLEWMGIINPSGVSTTYAQKFQGRVTMTRDTSTSTVYMELSSLRSEDTAVYYCAEVRGSGYNYFGMDVWGQGTLVTVSS
VL: SYELTQPPSVSVSPGQTASITCSGDKLGDKYASWYQQKPGQSPVLVIYQDNRRPSGIPERFSGSNSGNTATLTISGTQAMDEADYYCQAWDSDTYVFGTGTKVTVL
notes: fully human antibody
In the case of B10, in the assay with human mesothelin, the Kd is at most 0.39 nM, the dissociation rate constant (koff) was at most 1e-05 s⁻¹ and the kon amounted to 26000 M⁻¹ s⁻¹. Also, in the assay with cynomolgus mesothelin, the Kd turned out to be 4.9 nM, the koff was 0.00011 s⁻¹ and the kon is 22000 M⁻¹ s⁻¹.

B11: AD163.162.1 (antibody, V domains shown)
VH: QVQLQQPGAELVRPGSSVKLSCKASGYTFTSYWMHWVKQRPIQGLEWIGNIDPSNGETHYNQKFKDKATLTVDKSSSTAYMQLSSLTSEDSAVYYCARERIYYSGSTYDGYFDVWGTGTTVTVSS
VL: QIVLTQSPAIMSASPGEKVTMTCSASSSLSYMHWYQQKSGTSPKRWIYDTSKLASGVPARFSGSGSGTSYSLTISSMEAEDAATYYCQQWSSNPWTFGGGTKLEIK
notes: mouse hybridoma antibody; also called muAb6
With B11, in assay [1], the “Monocyte activation (THP1-Xblue, OD655)” value is 0.11 OD655 and the “moDC activation (IL-12p70)” value was 2160 pg/mL. In assay [2], this molecule showed a Kd of 63 nM, a koff of 0.0048 s⁻¹ and a kon of 76000 M⁻¹ s⁻¹.

B12: AD163.27.12 (antibody, V domains shown)
VH: QVQLQQPGAELVRPGSSVKLSCKASGYTFTSYWMHWVKQRPIQGLEWIGNIDPSNGETHYNQKFKDKATLTVDKSSSTAYMQLSSLTSEDSAVYYCARERIYYSGSTYDGYFDVWGTGTTVTVSS
VL: QIVLTQSPAIMSASPGEKVTMTCSASSSLSYMHWYQQKSGTSPKRWIYDTSKLASGVPARFSGSGSGTSYSLTISSMEGEDGATYYCQQWSSNPWTFGGGTKLEIK
notes: mouse hybridoma antibody; also called muAb7
On to B12, for which, in assay [1], the “Monocyte activation (THP1-Xblue, OD655)” value came out at 0.12 OD655 and the “moDC activation (IL-12p70)” value amounted to 1510 pg/mL. Besides, in assay [2], the Kd was 64 nM, the koff is 0.0048 s⁻¹ and the kon amounted to 75000 M⁻¹ s⁻¹.

B13: AD166.4.4 (antibody, V domains shown)
VH: QVQLQQSGAELMKPGASAKLSCKATGYTFTGYWIQWVKQRPGHGLEWIGEILPGGDHTKYNEKFRGKATFTSDTSSNTVYMQLSSLTTEDSAIYYCARVGGDYWGQGTTLTVSS
VL: DVVMTQTPLSLPVSLGDQASISCRSSQSLVNSNENTYLHWYLQKPGQSPKLLIYKVFNRYSGVPDRFSGSGSGTDFTLKISRVEAEDLGVYFCFQSTHVPWTFGGGTKLEIK
notes: mouse hybridoma antibody; also called muAb2
On to B13, for which, in assay [1], the “Monocyte activation (THP1-Xblue, OD655)” value was found to be 0.24 OD655 and the “moDC activation (IL-12p70)” value was 0 pg/mL. In assay [2], this molecule gave a Kd of 3.5 nM, a koff of 0.0096 s⁻¹ and an on-rate (kon) of 2.8e+06 M⁻¹ s⁻¹.

B14: AD163.9.3 (antibody, V domains shown)
VH: QVQLQQPGAELVKPGASVKMSCKASGYTFTSYWITWVKQRPGQGLEWIGEINPGSGSTNYNEKFKSKATLTVDTSSSTAYMQLSSLTSEDSAVYYCARNRGTGDYWGQGTTLTVSS
VL: DVVMTQTPLSLPVSLGDQASISCRSSQSLVHSYGNTYLHWYLQKPGQSPKFLIYKVSNRISGVPDRLSGSGSGTDFTLKISRVEPEDLGVYFCSQSTHVPYTFGGGTKLEIK
notes: mouse hybridoma antibody; also called muAb1
Take B14: in assay [1], the “Monocyte activation (THP1-Xblue, OD655)” value came out at 0.19 OD655 and the “moDC activation (IL-12p70)” value is 2220 pg/mL. Besides, in assay [2], binding was put at a Kd of 35 nM, the dissociation rate constant (koff) was determined as 0.016 s⁻¹ and the kon was 470000 M⁻¹ s⁻¹.
